The values that follow come from patent publication US20030175712A1 (published 2003).

Experiment [1] concerns the target T1, Cdc24p (1-160 aa) fused to GAL4 DBD (S. cerevisiae, UniProt P04386 1-147; P11433 1-160).
T1 construct: also called amino-terminal fragment consisting of the first 160 amino acid residues
In words: yeast two-hybrid, Cdc24p fragments fused to DBD. How it is done: (§1) Plasmids were transformed into HF7c. For determination of STE18 requirement, PCR-based geene disruption was carried out in PJ69-4A (MATa, trp1-901, leu2-3,112, ura3-52, his3-200, gal4D, gal80D, GAL2-ADE2, LYS2::GAL1-HIS3, met2::GAL7-lacZ)²⁹, replacing the entire STE18 ORF with K. Lactis URA3³⁰. For all two-hybrid experiments, equal amounts of transfonnants were spotted on SC-leu-trp and SC-leu-trp-his plates, identical results were obtained with at least four transformants, and for Dste18 two independent deletion strains. All strains for two-hybrid analyses expressed similar amounts of AD- and DBD- fusion proteins of the expected sizes, as determined by SDS-PAGE and immuno-blotting.
(§2) cdc24-m mutants are defective in mating and Ste4p (Gβ) binding. a, Location of Cdc24p mating mutations. Mating patches show diploids from mating with MATa WT tester. Ste4 2-H patch growth on -leu-trp-his indicates an interaction of Cdc24p (1-288 aa) with Ste4p. Similar results were obtained using a LacZ reporter in strain Y187 (relative Miller Units 100 for Cdc24/Ste4 and 3 for Cdc24-m1/Ste4). b, Two hybrid interactions of Cdc24p. Fror interactions with Ste4p, a fragment of Cdc24p (1-288 aa) was used, however, fill length Cdc24p also interats with Ste4p. c, Region of Cdc24p necessary for Ste4p interaction. […]

For experiment [2], the target named is T2, Cdc24-m1p (1-288 aa), GAL4 two-hybrid fusion (S. cerevisiae, UniProt P11433 1-288).
T2 construct: also called cdc24-m1 (1-288)
T2 sequence: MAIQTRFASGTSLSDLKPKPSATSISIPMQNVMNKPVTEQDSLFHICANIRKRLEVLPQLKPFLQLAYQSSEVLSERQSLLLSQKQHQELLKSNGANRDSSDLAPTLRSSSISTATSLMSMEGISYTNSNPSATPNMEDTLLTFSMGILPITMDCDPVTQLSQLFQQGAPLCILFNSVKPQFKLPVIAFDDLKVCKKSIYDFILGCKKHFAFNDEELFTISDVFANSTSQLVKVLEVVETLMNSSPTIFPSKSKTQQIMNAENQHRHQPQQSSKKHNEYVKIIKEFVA
In words: yeast two-hybrid, growth on -leu-trp-his. How it is done: as §1, §2

Experiment [3] has as its target T3, Cdc24-m3p (1-288 aa), GAL4 two-hybrid fusion (S. cerevisiae, UniProt P11433 1-288).
T3 sequence: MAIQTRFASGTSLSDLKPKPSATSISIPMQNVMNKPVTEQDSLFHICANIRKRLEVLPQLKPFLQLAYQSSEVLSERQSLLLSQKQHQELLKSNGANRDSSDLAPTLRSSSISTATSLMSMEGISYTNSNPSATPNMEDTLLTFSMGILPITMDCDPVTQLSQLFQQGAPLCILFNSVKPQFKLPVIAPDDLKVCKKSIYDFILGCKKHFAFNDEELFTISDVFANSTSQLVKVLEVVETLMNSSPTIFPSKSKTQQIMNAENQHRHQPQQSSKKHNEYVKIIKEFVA
The experiment in a line: yeast two-hybrid, growth on -leu-trp-his. How it is done: as §1, §2

In a further experiment the target is T4, GST (UniProt P08515 1-218 = GST).
T4 construct: Control; also called GST alone; glutathione-S-transferase
In words: GSH-agarose pull-down from mixed bacterial extracts, immunoblot. How it is done:
(§3) A fragment of CDC24 (1-472 aa) in pGEX-2T (Pharmacia) and His₆Ste4p (pTrcSte4) were expressed in E. coli. Cells were resuspended in buffer A (PBS, 0.1% TX-100, Phenyl Methyl Sulfonyl Fluoride (PMSF), leupeptin, chymostatin, pepstatin, aprotinin) and lysed by snap freezing in liquid nitrogen followed by sonicatioin. Insoluble material was removed by centrifuigation (10,000 g). Mixed supernatants (denoted cell extracts) containing His₆Ste4 and GSTCdc24 fusions were incubated with GSH-agarose (Sigma Chemical Co.) at 4° for 1 hr. Resin was washed 3 times with buffer A. Resin samples (referred to as eluates) and extracts were analyzed by SDS-PAGE, immuno-blottinig probed with Omni-probe anti-sera (Santa Cruz), and visualised with enhanced chemiluhniuescence (Amershan).
as §2
A general note: A western blot detects proteins with antibodies after separation by electrophoresis.

The next experiment addresses T5, GSTCdc24p (1-127 aa) (S. cerevisiae, UniProt P11433 1-127).
T5 construct: not shown: glutathione-S-transferase as encoded by pGEX-2T (Pharmacia)
T5 sequence (looked up): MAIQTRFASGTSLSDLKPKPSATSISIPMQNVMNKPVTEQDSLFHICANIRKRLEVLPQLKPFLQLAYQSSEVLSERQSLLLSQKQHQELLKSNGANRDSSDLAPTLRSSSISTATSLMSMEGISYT
Described as above. How it is done: as §3, §2

T4 sequence (P08515 whole entry): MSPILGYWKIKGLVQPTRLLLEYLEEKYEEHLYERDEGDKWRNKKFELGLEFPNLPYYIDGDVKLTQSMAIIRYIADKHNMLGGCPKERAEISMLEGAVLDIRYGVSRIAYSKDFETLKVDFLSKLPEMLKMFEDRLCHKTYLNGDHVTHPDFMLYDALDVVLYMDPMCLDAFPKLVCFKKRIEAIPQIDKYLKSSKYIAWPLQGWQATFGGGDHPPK

B1: Ste4p, GAL4 two-hybrid fusion (other, not shown: small tags and cut ends)
chain: MAHQMDSITYSNNVTQQYIQPQSLQDISAVEEEIQNKIEAARQESKQLHAQINKAKHKIQDASLFQMANKVTSLTKNKINLKPNIVLKGHNNKISDFRWSRDSKRILSASQDGFMLIWDSASGLKQNAIPLDSQWVLSCAISPSSTLVASAGLNNNCTIYRVSKENRVAQNVASIFKGHTCYISDIEFTDNAHILTASGDMTCALWDIPKAKRVREYSDHLGDVLALAIPEEPNLENSSNTFASCGSDGYTYIWDSRSPSAVQSFYVNDSDINALRFFKDGMSIVAGSDNGAINMYDLRSDCSIATFSLFRGYEERTPTPTYMAANMEYNTAQSPQTLKSTSSSYLDNQGVVSLDFSASGRLMYSCYTDIGCVVWDVLKGEIVGKLEGHGGRVTGVRSSPDGLAVCTGSWDSTMKIWSPGYQ
notes: also called Gβ
On to B1, for which the binding result in experiment [1], in experiment [2] and in experiment [3] was “no binding” in each case.

B2: His6Ste4p (other)
chain: MAHQMDSITYSNNVTQQYIQPQSLQDISAVEEEIQNKIEAARQESKQLHAQINKAKHKIQDASLFQMANKVTSLTKNKINLKPNIVLKGHNNKISDFRWSRDSKRILSASQDGFMLIWDSASGLKQNAIPLDSQWVLSCAISPSSTLVASAGLNNNCTIYRVSKENRVAQNVASIFKGHTCYISDIEFTDNAHILTASGDMTCALWDIPKAKRVREYSDHLGDVLALAIPEEPNLENSSNTFASCGSDGYTYIWDSRSPSAVQSFYVNDSDINALRFFKDGMSIVAGSDNGAINMYDLRSDCSIATFSLFRGYEERTPTPTYMAANMEYNTAQSPQTLKSTSSSYLDNQGVVSLDFSASGRLMYSCYTDIGCVVWDVLKGEIVGKLEGHGGRVTGVRSSPDGLAVCTGSWDSTMKIWSPGYQ
notes: Expressed in E. coli; migrates as a doublet due to proteolysis; also called Hexahistidine-tagged Ste4p; pTrcSte4; not shown: hexahistidine tag with the leader of the pTrc vector
B2: the binding result with GST and with GSTCdc24p (1-127 aa) was “no binding” in each case.
